Assay results from publication PMC5646979 (Molecular Medicine Reports, 2017).

Biological target: T1, Glu225Ala mutant RANKL (UniProt O35235 139-316, Glu225Ala)
T1 sequence (looked up): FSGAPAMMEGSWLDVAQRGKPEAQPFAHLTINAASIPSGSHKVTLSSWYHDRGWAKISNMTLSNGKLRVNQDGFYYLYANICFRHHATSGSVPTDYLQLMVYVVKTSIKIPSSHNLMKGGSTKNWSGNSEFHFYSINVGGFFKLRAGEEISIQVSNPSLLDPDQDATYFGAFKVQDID
Assay: SPR

fold decrease of binding affinity against wild-type RANKL: 100 fold
B1: Recombinant soluble RANK (receptor activator of nuclear factor κ-B) (receptor, murine, UniProt O35305 31-214, looked up)
chain: VTPPCTQERHYEHLGRCCSRCEPGKYLSSKCTPTSDSVCLPCGPDEYLDTWNEEDKCLLHKVCDAGKALVAVDPGNHTAPRRCACTAGYHWNSDCECCRRNTECAPGFGAQHPLQLNKDTVCTPCLLGFFSDVFSSTDKCKPWTNCTLLGKLEAHQGTTESDVVCSSSMTLRRPPKEAQAYLPS
